Source: publication PMC6072203

Legend:
[1] = biological target: H77 NS5A 38A (hepatitis C virus genotype 1a (H77 strain)); assay: two-hybrid; Checkmate mammalian two-hybrid: GAL4/BD fusion (pBIND) and VP16/AD fusion (pACT) with the pGL4.3[luc2P/Gal4UAS/Hygro] reporter co-transfected into FT3-7 (Huh-7) cells; lysed at 48 h; F-Luc/R-Luc ratio; for NS5A both fusions carry the same NS5A
[2] = biological target: YFP-fused JFH1 NS5A 148A of HJ3-5/NS5A^YFP (hepatitis C virus genotype 2a (JFH1 strain)); assay: co-IP; GFP immunoprecipitation (anti-GFP magnetic beads, 1 h, 4 C) of NS5A^YFP from lysates (0.5% Triton X-100, 10 mM Tris-HCl pH 7.5, 150 mM NaCl) of cells electroporated with HJ3-5/NS5A^YFP RNA; core detected by western blot; ratio of co-IP core per IP NS5A^YFP
[3] = biological target: YFP-fused JFH1 NS5A 38A of HJ3-5/NS5A^YFP (hepatitis C virus genotype 2a (JFH1 strain)); assay: as above
[4] = biological target: YFP-fused JFH1 NS5A 37A of HJ3-5/NS5A^YFP (hepatitis C virus genotype 2a (JFH1 strain)); assay: as above
[5] = biological target: JFH1 NS5A 36A (hepatitis C virus genotype 2a (JFH1 strain)); assay: two-hybrid; Checkmate mammalian two-hybrid: GAL4/BD fusion (pBIND) and VP16/AD fusion (pACT) with the pGL4.3[luc2P/Gal4UAS/Hygro] reporter co-transfected into FT3-7 (Huh-7) cells; lysed at 48 h; F-Luc/R-Luc ratio; for NS5A both fusions carry the same NS5A
[6] = biological target: H77 NS5A 36A/37A/38A (mutation group a); assay: checkmate mammalian two-hybrid assay; conditions: Huh-7 cells; GAL4/BD-fused and VP16/AD-fused NS5A both carry the mutations; parent: est. 100; read off a plot
[7] = biological target: H77 NS5A 36A/37A/38A/112A/148A (both mutation groups); assay: checkmate mammalian two-hybrid assay; conditions: Huh-7 cells; GAL4/BD-fused and VP16/AD-fused NS5A both carry the mutations; parent: est. 100; read off a plot
[8] = biological target: H77 NS5A 37A; assay: mammalian two-hybrid assay; conditions: Huh-7 cells; GAL4/BD-fused and VP16/AD-fused NS5A both carry the mutation; parent: est. 100; read off a plot
[9] = biological target: H77 NS5A 38A; assay: mammalian two-hybrid assay; conditions: Huh-7 cells; GAL4/BD-fused and VP16/AD-fused NS5A both carry the mutation; parent: est. 100; read off a plot
[10] = biological target: H77 NS5A 112A (UniProt P27958); assay: mammalian two-hybrid assay; conditions: Huh-7 cells; GAL4/BD-fused and VP16/AD-fused NS5A both carry the mutation; parent: est. 100; read off a plot
[11] = biological target: H77 NS5A 112A/148A (mutation group b); assay: checkmate mammalian two-hybrid assay; conditions: Huh-7 cells; GAL4/BD-fused and VP16/AD-fused NS5A both carry the mutations; parent: est. 100; read off a plot
[12] = biological target: H77 NS5A 148A; assay: mammalian two-hybrid assay; conditions: Huh-7 cells; GAL4/BD-fused and VP16/AD-fused NS5A both carry the mutation; parent: est. 100; read off a plot
[13] = biological target: JFH1 NS5A 36A; assay: checkmate mammalian two-hybrid assay; conditions: Huh-7 cells; GAL4/BD-fused and VP16/AD-fused NS5A both carry the mutation; parent: est. 100; read off a plot
[14] = biological target: JFH1 NS5A 36A/37A/38A (mutation group a); assay: checkmate mammalian two-hybrid assay; conditions: Huh-7 cells; GAL4/BD-fused and VP16/AD-fused NS5A both carry the mutations; parent: est. 100; read off a plot
[15] = biological target: JFH1 NS5A 36A/37A/38A/112A/148A (both mutation groups combined); assay: checkmate mammalian two-hybrid assay; conditions: Huh-7 cells; GAL4/BD-fused and VP16/AD-fused NS5A both carry the mutations; parent: est. 100; read off a plot
[16] = biological target: JFH1 NS5A 37A; assay: checkmate mammalian two-hybrid assay; conditions: Huh-7 cells; GAL4/BD-fused and VP16/AD-fused NS5A both carry the mutation; parent: est. 100; read off a plot
[17] = biological target: JFH1 NS5A 38A; assay: checkmate mammalian two-hybrid assay; conditions: Huh-7 cells; GAL4/BD-fused and VP16/AD-fused NS5A both carry the mutation; parent: est. 100; read off a plot
[18] = biological target: JFH1 NS5A 112A (UniProt Q99IB8); assay: checkmate mammalian two-hybrid assay; conditions: Huh-7 cells; GAL4/BD-fused and VP16/AD-fused NS5A both carry the mutation; parent: est. 100; read off a plot
[19] = biological target: JFH1 NS5A 112A/148A (mutation group b); assay: checkmate mammalian two-hybrid assay; conditions: Huh-7 cells; GAL4/BD-fused and VP16/AD-fused NS5A both carry the mutations; parent: est. 100; read off a plot

Substance: H77 NS5A 38A (natural protein)
- percent above wt NS5A self-interaction (F-Luc/R-Luc) [1]: 30 % above wt

Substance: HCV core protein (H77 core of the chimera HJ3-5) (natural protein)
- NS5A and core co-IP efficiency against wt (% lower than wt) [2]: 50
- NS5A and core co-IP efficiency against wt (% lower than wt) [3]: 50
- NS5A and core co-IP efficiency against wt (% lower than wt) [4]: 50

Substance: JFH1 NS5A 36A (natural protein)
- percent of wt NS5A self-interaction (F-Luc/R-Luc) [5]: 20 % of wt

Substance: wild-type full-length NS5A of gt1a HCV H77 (from UniProt P27958) 36A; 37A; 38A
- percent of parent [6]: 17 % wt

Substance: wild-type full-length NS5A of gt1a HCV H77 (from UniProt P27958) 36A; 37A; 38A; 112A; 148A
- percent of parent [7]: 3.3 % wt

Substance: wild-type full-length NS5A of gt1a HCV H77 (from UniProt P27958) 37A
- percent of parent [8]: 45 % wt

Substance: wild-type full-length NS5A of gt1a HCV H77 (from UniProt P27958) 38A
- percent of parent [9]: 130 % wt

Substance: wild-type full-length NS5A of gt1a HCV H77 (from UniProt P27958) 112A
- percent of parent [10]: 27 % wt

Substance: wild-type full-length NS5A of gt1a HCV H77 (from UniProt P27958) 112A; 148A
- percent of parent [11]: 11 % wt

Substance: wild-type full-length NS5A of gt1a HCV H77 (from UniProt P27958) 148A
- percent of parent [12]: 13 % wt

Substance: wild-type full-length NS5A of gt2a HCV JFH1 (from UniProt Q99IB8) 36A
- percent of parent [13]: 22 % wt

Substance: wild-type full-length NS5A of gt2a HCV JFH1 (from UniProt Q99IB8) 36A; 37A; 38A
- percent of parent [14]: 11 % wt

Substance: wild-type full-length NS5A of gt2a HCV JFH1 (from UniProt Q99IB8) 36A; 37A; 38A; 112A; 148A
- percent of parent [15]: 2.5 % wt

Substance: wild-type full-length NS5A of gt2a HCV JFH1 (from UniProt Q99IB8) 37A
- percent of parent [16]: 78 % wt

Substance: wild-type full-length NS5A of gt2a HCV JFH1 (from UniProt Q99IB8) 38A
- percent of parent [17]: 77 % wt

Substance: wild-type full-length NS5A of gt2a HCV JFH1 (from UniProt Q99IB8) 112A
- percent of parent [18]: 110 % wt

Substance: wild-type full-length NS5A of gt2a HCV JFH1 (from UniProt Q99IB8) 112A; 148A
- percent of parent [19]: 2.7 % wt
